Measured values from paper PMC12493188.

Experiments:
[1] = molecular target: reaction centre-light harvesting 1 (RC-LH1) core complex, monomer, from Rba. sphaeroides strain DX13 (Rhodobacter sphaeroides 2.4.1) (UniProt P0C0Y8)
[2] = molecular target: reaction centre-light harvesting 1 (RC-LH1) core complex, monomer, from Rba. sphaeroides strain DX13 (Rhodobacter sphaeroides 2.4.1) (UniProt P0C0Y8); remark: listed apart in the source

Substance	K M of redox carrier oxidation by RC-LH1, steady-state turnover (0.125 µM RC-LH1, 50 µM UQ-2, 50 mM Tris-HCl pH 7.5, 100 mM NaCl, 0.03% β-DDM, 25°C) [1] [µM]	Pc oxidation rate by RC-LH1 against NaCl (0-800 mM): optimum [NaCl] [1] [mM]	V max of redox carrier oxidation by RC-LH1, steady-state turnover (0.125 µM RC-LH1, 50 µM UQ-2, 50 mM Tris-HCl pH 7.5, 100 mM NaCl, 0.03% β-DDM, 25°C) [1] [e^−/RC/s]	cyt c oxidation rate by RC-LH1 against NaCl (series up to 500 mM; observed optimum 50 mM): activity lost at 500 mM NaCl (% of activity lost) [2]	cyt c 2 oxidation rate by RC-LH1 against NaCl (series up to 500 mM; optimum 100 mM in Table 1): activity left at 500 mM NaCl, percent of the maximum (% of maximum activity) [2]	iso c 2 oxidation rate by RC-LH1 against NaCl (series up to 500 mM; optimum 50 mM in Table 1): activity left at 500 mM NaCl, percent of the maximum (% of maximum activity) [2]	cyt c 6 oxidation rate by RC-LH1 against NaCl (0-800 mM): optimum [NaCl] [1] [mM]
plastocyanin (Pc) of Synechocystis sp. PCC 6803, C-terminally StrepII-tagged (from UniProt P21697 29-126) (natural protein)	209	700	7.92	–	–	–	–
cytochrome c (cyt c) from horse heart mitochondria (from UniProt P00004 1-105) (natural protein)	–	–	–	90	–	–	–
cytochrome c 2 (cyt c 2) of Rba. sphaeroides (from UniProt P0C0X8 1-124) (natural protein)	6.8	–	293	–	40	–	–
isocytochrome c 2 (iso c 2) of Rba. sphaeroides (natural protein)	5.88	–	230	–	–	20	–
cytochrome c 6 (cyt c 6) of Synechocystis sp. PCC 6803 (from UniProt P46445 36-120) (natural protein)	66.3	–	37.8	–	–	–	700
